Consider 19 molecules from patent EP1100818B1 (WHITEHEAD INSTITUTE FOR BIOMEDICAL RESEARCH, dated 2013).

For test [1], the target named is N36 peptide of HIV-1 gp41 (HIV-1). In words: circular dichroism at 222 nm, thermal melt. A general note: Circular dichroism is the unequal absorption of left and right circularly polarised light.
Test [2] shares this target. In words: circular dichroism at 222 nm, thermal melt, 10 µM of each peptide, PBS pH 7.0.
The target in test [3] is T1, HIV-1 HXB2 envelope glycoprotein (gp41 subunit, N-helix coiled-coil) (HIV-1 (HXB2), UniProt P04578 512-856). In words: cell-based or functional assay.
For test [4], the target named is T1, HIV-1 HXB2 envelope glycoprotein (gp41 …). In words: cell-based or functional assay. This is another data set of the same source.

Consider C34 Trp^631→Val (peptide), for which the Tm (apparent melting temperature of the N36/C34 complex) in test [1] is 43 °C. Regarding C34 Trp^631→Ala (peptide), the Tm (apparent melting temperature of the N36/C34 complex) in test [2] was 37 °C. As to C34 Trp^631→Abu (peptide), the Tm (apparent melting temperature of the N36/C34 complex) in test [1] was determined as 43 °C.

As for C34 peptide of HIV-1 gp41, wildtype, the Tm (apparent melting temperature of the N36/C34 complex) in test [2] was found to be 66 °C. As for C34 Trp^631→Leu (peptide), the Tm (apparent melting temperature of the N36/C34 complex) in test [1] was determined as 50 °C. On to C34 Arg^633→Ala (peptide), for which the Tm (apparent melting temperature of the N36/C34 complex) in test [2] is 65 °C. Regarding C34 Trp^631→Nal (peptide), in test [1], the Tm (apparent melting temperature of the N36/C34 complex) was determined as 62 °C. Turning to C34 Ile^635→Ala (peptide), the Tm (apparent melting temperature of the N36/C34 complex) in test [2] amounted to 55 °C. With C34 Trp^631→Phe (peptide), the Tm (apparent melting temperature of the N36/C34 complex) in test [1] was 59 °C. As to C34 Met^629→Ala (peptide), the Tm (apparent melting temperature of the N36/C34 complex) in test [2] was determined as 66 °C.

For C34 Trp^631→Gly (peptide), the Tm (apparent melting temperature of the N36/C34 complex) in test [1] came out at 35 °C. In the case of C34 Trp^628→Ala (peptide), the Tm (apparent melting temperature of the N36/C34 complex) in test [2] was determined as 53 °C.

B1: C34 Trp^631→Leu (peptide)
peptide: Ac-WMELDREINNYTSLIHSLIEESQNQQEKNEQELL-NH2
Turning to B1, in test [3], the “IC50 (nanomolar) cell fusion” value is 3.2 nM and the “IC50 (nanomolar) virus entry” value was determined as 5.3 nM.

B2: C34 Trp^631→Ala (peptide)
peptide: Ac-WMEADREINNYTSLIHSLIEESQNQQEKNEQELL-NH2
As for B2, the “decrease in inhibitory activity against wildtype C34” value in test [3] was roughly 30 fold.

B3: C34 Trp^631→Val (peptide)
peptide: Ac-WMEVDREINNYTSLIHSLIEESQNQQEKNEQELL-NH2
As for B3, in test [3], the “IC50 (nanomolar) cell fusion” value was found to be 4.5 nM and the “IC50 (nanomolar) virus entry” value came to 13 nM.

B4: C34 Trp^631→Gly (peptide)
peptide: Ac-WMEGDREINNYTSLIHSLIEESQNQQEKNEQELL-NH2
Turning to B4, in test [3], the “IC50 (nanomolar) cell fusion” value amounted to 25 nM and the “IC50 (nanomolar) virus entry” value was found to be 38 nM.

B5: C34 Arg^633→Ala (peptide)
peptide: Ac-WMEWDAEINNYTSLIHSLIEESQNQQEKNEQELL-NH2
Consider B5, for which, in test [4], the “IC50 (nM) cell fusion” value is 0.76 nM and the “IC50 (nM) viral entry” value was found to be 2.6 nM.

B6: C34 Ile^635→Ala (peptide)
peptide: Ac-WMEWDREANNYTSLIHSLIEESQNQQEKNEQELL-NH2
In the case of B6, the “decrease in inhibitory activity against wildtype C34” value in test [3] is roughly 2 fold. In test [4], the “IC50 (nM) cell fusion” value was determined as 0.96 nM and the “IC50 (nM) viral entry” value is 4.1 nM.

B7: C34 Trp^631→Phe (peptide)
peptide: Ac-WMEFDREINNYTSLIHSLIEESQNQQEKNEQELL-NH2
As for B7, in test [3], the “IC50 (nanomolar) cell fusion” value came to 1.6 nM and the “IC50 (nanomolar) virus entry” value turned out to be 3.6 nM.
